Results on 4 molecules are retold here after article PMC6551489, “Structural insights into interactions between viral suppressor of RNA silencing protein p19 mutants and small RNAs” (FEBS Open Bio, 2019).

Series [1] concerns the molecule itself. As to the kind of experiment: crystal structure; p19 homodimer in complex with GL2 siRNA duplex; hanging drop vapour diffusion at 4 °C, 3-12% PEG 1500, 100 mM sodium acetate pH 4.6, 10-40 mM MgCl2; space group P1.
For series [2], the target named is T1, CIRV p19-WT (Carnation Italian ringspot virus, UniProt Q66104 1-172).
T1 sequence: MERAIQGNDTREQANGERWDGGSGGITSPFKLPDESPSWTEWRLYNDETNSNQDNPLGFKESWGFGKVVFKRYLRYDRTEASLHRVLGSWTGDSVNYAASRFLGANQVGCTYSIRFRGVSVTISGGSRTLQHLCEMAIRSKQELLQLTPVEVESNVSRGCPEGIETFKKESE
Description: X-ray crystallography; 2.2 A; Protein in 20 mM Tris pH 7.4, 150 mM NaCl, 1 mM TCEP before crystallization; crystallization conditions not in the material. To be noted: protein: recombinant; tags: N-terminal His6 removed with TEV protease; chain copies: 2; 19 bp, 3' overhang 2 nt on both strands.

Numbering of substitutions follows the chain as printed. Names may count otherwise.

B1: wild-type p19 protein from the Carnation Italian ringspot virus (natural protein)
chain: T1 sequence
notes: p19 viral suppressor of RNA silencing, Carnation Italian ringspot virus (CIRV), full-length construct, codon-optimized for E. coli, in pHis-parallel 2; Crystallised in complex with GL2 siRNA duplex; also called p19-WT; CIRV p19; source: E. coli BL21 DE3, purified (Nickel resin, TEV cleavage, size-exclusion chromatography); not shown: His6, N-terminal, cleaved
Take B1: the binding result in series [1] was “binds”.

B2: p19-T111H mutant of the Carnation Italian ringspot virus p19 protein (natural protein, UniProt Q66104 1-172, looked up)
chain: T1 sequence with T111H
notes: Crystallised in complex with GL2 siRNA duplex; also called H111; source: E. coli BL21 DE3, purified (Nickel resin, TEV cleavage, size-exclusion chromatography); not shown: His6, N-terminal, cleaved
For the molecule B2, in series [1], the binding result is listed as “binds”.

B3: p19-T111S mutant of the Carnation Italian ringspot virus p19 protein (natural protein, UniProt Q66104 1-172, looked up)
chain: T1 sequence with T111S
notes: Crystallised in complex with GL2 siRNA duplex; also called S111; source: E. coli BL21 DE3, purified (Nickel resin, TEV cleavage, size-exclusion chromatography); not shown: His6, N-terminal, cleaved
As for B3, the binding result in series [1] is recorded as “binds”.

B4: GL2 siRNA duplex (dsRNA)
RNA 1: CGUACGCGGAAUACUUCGAUU
RNA 2: UCGAAGUAUUCCGCGUACGUU
modifications: 5' phosphorylated strands; text says deoxythymidine 2-nt overhangs, but printed as UU
In the case of B4, in series [2], the binding result is recorded as “binds”.
